Biological target: the molecule itself
Assay: crystal structure; apo Pp-SpuC; crystals in 0.2 M MgCl2, 0.1 M Bis-Tris pH 6.5, 25% PEG3350, 20°C; two monomers in the asymmetric unit

B1: putrescine transaminase from Pseudomonas putida (Pp-SpuC) (enzyme)
chain: MSTNNPQTREWQTLSGEHHLAPFSDYKQLKEKGPRIITKAQGVHLWDSEGHKILDGMAGLWCVAVGYGREELVQAAEKQMRELPYYNLFFQTAHPPALELAKAITDVAPEGMTHVFFTGSGSEGNDTVLRMVRHYWALKGKPHKQTIIGRINGYHGSTFAGACLGGMSGMHEQGGLPIPGIVHIPQPYWFGEGGDMTPDAFGIWAAEQLEKKILEVGEDNVAAFIAEPIQGAGGVIIPPETYWPKVKEILAKYDILFVADEVICGFGRTGEWFGSDYYDLKPDLMTIAKGLTSGYIPMGGVIVRDKVAKVISEGGDFNHGFTYSGHPVAAAVGLENLRILRDEQIVEKARTEAAPYLQKRLRELQDHPLVGEVRGLGMLGAIELVKDKATRSRYEGKGVGMICRTFCFENGLIMRAVGDTMIIAPPLVISHAEIDELVEKARKCLDLTLEAIR
notes: putrescine transaminase SpuC of Pseudomonas putida (strain NBRC 14161 bought from NCIMB), cloned in pET-28b as in Galman et al., 2017; in the crystal residues 1-33, 154-179 and 313-324 are disordered; No cleavage of the tag is told; Crystallised in the apo form (no PLP seen); also called putrescine transaminase spuC; source: E. coli BL21 (DE3), pET28b, purified (Ni-NTA, ion exchange on …)
B1 was tested. Which “stoichiometry N” value did it give?
Its value is 2.
